{"source": "paper PMC4373776", "about": "“A Unique HMG-Box Domain of Mouse Maelstrom Binds Structured RNA but Not Double Stranded DNA”", "key": {"[1]": {"target": "T1, MAEL HMG-box (Mus musculus, UniProt Q8BVN9 2-86)", "T1 sequence": "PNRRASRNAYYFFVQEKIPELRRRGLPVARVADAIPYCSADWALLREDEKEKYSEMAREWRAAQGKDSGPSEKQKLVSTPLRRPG", "assay": "EMSA; 10 mM potassium phosphate pH 7.5, 50 mM KCl, 5% glycerol, 1 mM TCEP, 0.1 mg/ml BSA, 2.5 mM MgCl2, ~1 nM substrate, room temperature 30-60 min; native PAGE in ice bath", "conditions": "protein: recombinant, tags: GST removed by PreScission (pGex6P2), label: 5' 32P"}, "[2]": {"target": "T2, MAEL HMG-box R23A (Mus musculus, UniProt Q8BVN9 2-86, R23A)", "T2 sequence": "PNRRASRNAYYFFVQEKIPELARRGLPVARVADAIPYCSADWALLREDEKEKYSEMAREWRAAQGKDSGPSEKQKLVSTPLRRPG", "assay": "EMSA; 10 mM potassium phosphate pH 7.5, 50 mM KCl, 5% glycerol, 1 mM TCEP, 0.1 mg/ml BSA, 2.5 mM MgCl2, ~1 nM substrate, room temperature 30-60 min; native PAGE in ice bath", "conditions": "protein: recombinant; tags: GST removed by PreScission (pGex6P2); label: 5' 32P; four-way junction of 4 strands"}, "[3]": {"target": "T3, MAEL HMG-box R25A (Mus musculus, UniProt Q8BVN9 2-86, R25A)", "T3 sequence": "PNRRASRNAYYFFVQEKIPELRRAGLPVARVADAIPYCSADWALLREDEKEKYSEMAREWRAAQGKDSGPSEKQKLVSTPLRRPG", "assay": "EMSA; 10 mM potassium phosphate pH 7.5, 50 mM KCl, 5% glycerol, 1 mM TCEP, 0.1 mg/ml BSA, 2.5 mM MgCl2, ~1 nM substrate, room temperature 30-60 min; native PAGE in ice bath", "conditions": "protein: recombinant; tags: GST removed by PreScission (pGex6P2); label: 5' 32P; four-way junction of 4 strands"}, "[4]": {"target": "T4, MAEL HMG-box R8A (Mus musculus, UniProt Q8BVN9 2-86, R8A)", "T4 sequence": "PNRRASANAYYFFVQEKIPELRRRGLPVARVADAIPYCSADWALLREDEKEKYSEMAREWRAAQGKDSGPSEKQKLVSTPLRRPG", "assay": "EMSA; 10 mM potassium phosphate pH 7.5, 50 mM KCl, 5% glycerol, 1 mM TCEP, 0.1 mg/ml BSA, 2.5 mM MgCl2, ~1 nM substrate, room temperature 30-60 min; native PAGE in ice bath", "conditions": "protein: recombinant; tags: GST removed by PreScission (pGex6P2); label: 5' 32P; four-way junction of 4 strands"}, "[5]": {"target": "T5, MAEL HMG-box R31A (Mus musculus, UniProt Q8BVN9 2-86, R31A)", "T5 sequence": "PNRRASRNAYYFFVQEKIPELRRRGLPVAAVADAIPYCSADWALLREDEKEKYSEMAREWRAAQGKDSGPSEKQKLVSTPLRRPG", "assay": "EMSA; 10 mM potassium phosphate pH 7.5, 50 mM KCl, 5% glycerol, 1 mM TCEP, 0.1 mg/ml BSA, 2.5 mM MgCl2, ~1 nM substrate, room temperature 30-60 min; native PAGE in ice bath", "conditions": "protein: recombinant; tags: GST removed by PreScission (pGex6P2); label: 5' 32P; four-way junction of 4 strands"}, "[6]": {"target": "T6, HMGB1a (HMGB1 box A) (Mus musculus, UniProt P63158 2-86)", "T6 sequence": "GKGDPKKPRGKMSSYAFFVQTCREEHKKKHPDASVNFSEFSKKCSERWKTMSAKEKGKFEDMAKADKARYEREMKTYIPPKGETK", "assay": "EMSA; two complexes; 10 mM potassium phosphate pH 7.5, 50 mM KCl, 5% glycerol, 1 mM TCEP, 0.1 mg/ml BSA, 2.5 mM MgCl2, ~1 nM substrate, room temperature 30-60 min; native PAGE in ice bath", "conditions": "protein: recombinant; tags: GST removed by PreScission (pGex6P2); label: 5' 32P; four-way junction of 4 strands"}, "[7]": {"target": "T7, SRY HMG-box (Mus musculus (129S4), UniProt Q05738 2-86)", "T7 sequence (Q05738 2-86)": "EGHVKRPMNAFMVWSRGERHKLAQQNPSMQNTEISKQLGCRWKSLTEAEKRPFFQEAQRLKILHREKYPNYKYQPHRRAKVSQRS", "assay": "EMSA; five complexes; 10 mM potassium phosphate pH 7.5, 50 mM KCl, 5% glycerol, 1 mM TCEP, 0.1 mg/ml BSA, 2.5 mM MgCl2, ~1 nM substrate, room temperature 30-60 min; native PAGE in ice bath", "conditions": "protein: recombinant; tags: GST removed by PreScission (pGex6P2); label: 5' 32P; four-way junction of 4 strands"}, "[8]": {"target": "T8, MAEL HMG-box Q16A (Mus musculus, UniProt Q8BVN9 2-86, Q16A)", "T8 sequence": "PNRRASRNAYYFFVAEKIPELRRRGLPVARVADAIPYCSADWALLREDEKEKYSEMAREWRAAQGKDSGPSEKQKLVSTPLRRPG", "assay": "EMSA; same as wild type; 10 mM potassium phosphate pH 7.5, 50 mM KCl, 5% glycerol, 1 mM TCEP, 0.1 mg/ml BSA, 2.5 mM MgCl2, ~1 nM substrate, room temperature 30-60 min; native PAGE in ice bath", "conditions": "protein: recombinant; tags: GST removed by PreScission (pGex6P2); label: 5' 32P; four-way junction of 4 strands"}, "[9]": {"target": "T1, MAEL HMG-box", "assay": "EMSA; no appreciable binding; 10 mM potassium phosphate pH 7.5, 50 mM KCl, 5% glycerol, 1 mM TCEP, 0.1 mg/ml BSA, 2.5 mM MgCl2, ~1 nM substrate, room temperature 30-60 min; native PAGE in ice bath", "conditions": "protein: recombinant; tags: GST removed by PreScission (pGex6P2); label: 5' 32P; folded"}, "[10]": {"target": "T1, MAEL HMG-box", "assay": "EMSA; complex from 0.5 uM protein; cooperative; fully bound; 10 mM potassium phosphate pH 7.5, 50 mM KCl, 5% glycerol, 1 mM TCEP, 0.1 mg/ml BSA, 2.5 mM MgCl2, ~1 nM substrate, room temperature 30-60 min; native PAGE in ice bath", "conditions": "protein: recombinant; tags: GST removed by PreScission (pGex6P2); label: 5' 32P; folded"}, "[11]": {"target": "T6, HMGB1a (HMGB1 box A)", "assay": "EMSA; 10 mM potassium phosphate pH 7.5, 50 mM KCl, 5% glycerol, 1 mM TCEP, 0.1 mg/ml BSA, 2.5 mM MgCl2, ~1 nM substrate, room temperature 30-60 min; native PAGE in ice bath", "conditions": "protein: recombinant; tags: GST removed by PreScission (pGex6P2); label: 5' 32P; blunt"}, "[12]": {"target": "T7, SRY HMG-box", "assay": "EMSA; 2.5 mM Mg2+; average of titration and cold competition; 10 mM potassium phosphate pH 7.5, 50 mM KCl, 5% glycerol, 1 mM TCEP, 0.1 mg/ml BSA, 2.5 mM MgCl2, ~1 nM substrate, room temperature 30-60 min; native PAGE in ice bath", "conditions": "protein: recombinant; tags: GST removed by PreScission (pGex6P2); label: 5' 32P; blunt"}, "[13]": {"target": "T1, MAEL HMG-box", "assay": "EMSA; 2.5 mM Mg2+; binding incomplete; 10 mM potassium phosphate pH 7.5, 50 mM KCl, 5% glycerol, 1 mM TCEP, 0.1 mg/ml BSA, 2.5 mM MgCl2, ~1 nM substrate, room temperature 30-60 min; native PAGE in ice bath", "conditions": "protein: recombinant; tags: GST removed by PreScission (pGex6P2); label: 5' 32P; four-way junction of 4 strands"}, "[14]": {"target": "T6, HMGB1a (HMGB1 box A)", "assay": "EMSA; multiple intermediate complexes; 10 mM potassium phosphate pH 7.5, 50 mM KCl, 5% glycerol, 1 mM TCEP, 0.1 mg/ml BSA, 2.5 mM MgCl2, ~1 nM substrate, room temperature 30-60 min; native PAGE in ice bath", "conditions": "protein: recombinant; tags: GST removed by PreScission (pGex6P2); label: 5' 32P; four-way junction of 4 strands"}}}
{"binder": "GGGAAAGGGUUAGGGUUAGGGUUAGGGAA (ssRNA)", "note": "[ssRNA]", "values": [{"measurement": "binding result", "setting": "[1]", "result": "no binding"}]}
{"binder": "DNA 4WJ (structured_DNA) DNA 1: CCGACAGGACTGTCAACCAGGTAATATACCACTTGCGG DNA 2: CCGCAAGTGGTATATTACCTGGTACGCGTTCACGG DNA 3: CCGTGAACGCGTGGTGCGAATCGG DNA 4: CCGATTCGCACCTGACAGTCCTGTCGG", "values": [{"measurement": "binding result", "setting": "[2]", "result": "no binding"}, {"measurement": "binding result", "setting": "[3]", "result": "no binding"}, {"measurement": "binding result", "setting": "[4]", "result": "no binding"}, {"measurement": "binding result", "setting": "[5]", "result": "no binding"}, {"measurement": "binding result", "setting": "[6]", "result": "binds"}, {"measurement": "binding result", "setting": "[7]", "result": "binds"}, {"measurement": "binding result", "setting": "[8]", "result": "binds"}]}
{"binder": "GCGCAACAAUGCCGG (structured_RNA)", "note": "[RNA hairpin 1]", "values": [{"measurement": "binding result", "setting": "[1]; hairpin", "result": "no binding"}]}
{"binder": "AAAGGGTTAGGGTTAGGGTTAGGGAA (ssDNA)", "note": "[ssDNA (25-nt)]", "values": [{"measurement": "binding result", "setting": "[1]", "result": "no binding"}]}
{"binder": "GGGACCAGAAGGUCCCG (structured_RNA)", "note": "[RNA hairpin 2]", "values": [{"measurement": "binding result", "setting": "[1]; hairpin", "result": "no binding"}]}
{"binder": "chr2 noPeak 177-nt RNA (structured_RNA) RNA: GGGGGGGAUGAAAAAUUCAUCUAAUUUAGUACAAUGUAAAUAUAAAGAGUUUGGAAAUUUUUGAAAACUUGAGGUCAUGUUAAAAAAGCAACAACUCUCCUUUUAGAUUGUCCUAUUUGUGUCUUGAAAUUCCUAUGCUGUUCUAAACCCAUUUGGUAUGUAUGCUCCUGCCCAAAC", "values": [{"measurement": "binding result", "setting": "[9]", "result": "no binding"}]}
{"binder": "L1_Md_F2 277-nt RNA (structured_RNA) RNA: GGGUUCUGGCUAUUAUAAAUAAGGCUGCUAUGAACAUAGUGGAGCAUGUGUCCUUCUUACCGGUUGGGGCAUCUUCUGGAUAUAUGCCCAGGAGAGGUAUUGCUGGAUCCUCCGGUAGUACUAUGUCCAAUUUUCUGAGGAACCACCAGACUGAUUUCCAGAGUGGUUGUACAGCUUGCAAUCCCACCAGCAAUGAAGGCGUGUUCCUCUUUCUCCACAUCCACGCCAGCAUCUGCUGUCACCUGAAUUUUUGAUCUUAGCCAUUCUGACUGGUGUG", "values": [{"measurement": "binding result", "setting": "[10]", "result": "binds"}]}
{"binder": "dsDNA-SRY 15 bp (dsDNA) DNA 1: GCGCAACAATGCCGG DNA 2: CCGGCATTGTTGCGC", "values": [{"measurement": "binding result", "setting": "[1]; blunt", "result": "no binding"}, {"measurement": "binding result", "setting": "[11]", "result": "no binding"}, {"measurement": "Kd", "setting": "[12]", "result": "~12", "unit": "nM"}]}
{"binder": "RNA 4WJ (structured_RNA, 5'-terminal dC and 3'-terminal dG on each strand) RNA 1: CCGACAGGACUGUCAACCAGGUAAUAUACCACUUGCGG RNA 2: CCGCAAGUGGUAUAUUACCUGGUACGCGUUCACGG RNA 3: CCGUGAACGCGUGGUGCGAAUCGG RNA 4: CCGAUUCGCACCUGACAGUCCUGUCGG", "values": [{"measurement": "binding result", "setting": "[4]", "result": "no binding"}, {"measurement": "Kd", "setting": "[13]", "result": 638, "unit": "nM"}, {"measurement": "binding result", "setting": "[14]", "result": "binds"}]}
{"binder": "methylated dsDNA 16 bp (dsDNA, 5-methyl-dC at position 8 of each strand) DNA 1: CAGTCGACGTCGTGAC DNA 2: GTCACGACGTCGACTG", "values": [{"measurement": "binding result", "setting": "[1]; blunt", "result": "no binding"}]}
